Test results as given in patent US20130053541A1, “METHODS FOR DISCOVERING MOLECULES THAT BIND TO PROTEINS” (LYNNTECH, INC., priority 2011, published 2013).
Where no end group is shown, it is not given here.

T1: native human ESRRG protein (Estrogen-receptor related receptor gamma) (human, UniProt P62508 229-458, limits assumed)
T1 construct: the screened protein is called 'native human ESRRG protein'; also called ESSRG; ERRγ
T1 sequence (looked up): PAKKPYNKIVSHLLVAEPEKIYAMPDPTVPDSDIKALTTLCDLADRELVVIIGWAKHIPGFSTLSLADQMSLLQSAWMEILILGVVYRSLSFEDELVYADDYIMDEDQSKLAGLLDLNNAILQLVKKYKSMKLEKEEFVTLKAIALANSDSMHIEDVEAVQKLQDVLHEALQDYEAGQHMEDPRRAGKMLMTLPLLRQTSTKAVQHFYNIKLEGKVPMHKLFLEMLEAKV

T2: native human ESRRG protein (Homo sapiens, UniProt P62508)
T2 sequence (P62508 1-458): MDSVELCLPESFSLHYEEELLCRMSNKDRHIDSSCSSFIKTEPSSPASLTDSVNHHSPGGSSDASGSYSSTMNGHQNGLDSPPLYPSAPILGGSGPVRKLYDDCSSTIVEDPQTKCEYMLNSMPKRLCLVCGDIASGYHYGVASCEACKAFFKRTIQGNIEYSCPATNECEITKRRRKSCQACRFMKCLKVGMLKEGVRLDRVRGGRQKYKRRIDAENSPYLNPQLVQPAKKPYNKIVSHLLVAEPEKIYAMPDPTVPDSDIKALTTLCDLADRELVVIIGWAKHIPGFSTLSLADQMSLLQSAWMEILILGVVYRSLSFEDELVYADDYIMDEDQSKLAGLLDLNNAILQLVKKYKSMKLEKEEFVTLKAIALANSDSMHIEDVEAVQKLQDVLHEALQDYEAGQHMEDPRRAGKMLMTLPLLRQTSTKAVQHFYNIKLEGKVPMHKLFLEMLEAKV


Target: T1, native human ESRRG protein …
Experiment: peptide microarray, Iteration 2; bound ESRRG detected with fluorescent anti-ESRRG mAb
Details: not given
Procedure: (§1) Screening was carried out typically by hybridization of the protein (1 μg/mL) against the array for 1 h at 4° C.; detection of bound protein was carried out using a fluorescently labeled anti-ESRRG mAb. (Direct labeling of ESRRG and alternative detection strategies are equally valid).
(§2) Iterative sequence expansion and arraying of 10 highest binding ligands to ESRRG from Iteration 1 was carried out and the new peptide sequences were synthesized on an array and screened against the protein, as described above. In this step, the central 2 amino acids (core) in peptide sequences were maintained unchanged while outlying amino acids (2, 3, 6, and 7) were permuted (using Tier 1 and Tier 3 substitutions) in a ‘cipher’ or ‘combination’ lock approach.

| Molecule | Sample B (Probe) Signal | log2 (Sample B/Sample A) |
| --- | --- | --- |
| Ac-NFNYLLPH | 13800 fluorescence intensity units | 4.88 |
| Ac-HDNMYLNE | 7240 fluorescence intensity units | 6.47 |
| Ac-HRSYPRRG | 19000 fluorescence intensity units | 4.56 |
| Ac-TGKLKQDG | 2460 fluorescence intensity units | 3.55 |
| Ac-DNNYLLLL | 2240 fluorescence intensity units | 3.84 |
| Ac-PDSYPRWG | 5590 fluorescence intensity units | 4.27 |
| Ac-LFLLQQDD | 2420 fluorescence intensity units | 3.47 |
| Ac-NNNFSLHM | 4370 fluorescence intensity units | 4.45 |

Now from value to molecule:

| Sample B (Probe) Signal | log2 (Sample B/Sample A) | Molecule |
| --- | --- | --- |
| 2340 fluorescence intensity units | 3.69 | Ac-WIKLKQND |
| 5020 fluorescence intensity units | 4.08 | Ac-EDSYPRDG |
| 4800 fluorescence intensity units | 4.9 | Ac-DINFSLGI |
| 2860 fluorescence intensity units | 3.97 | Ac-WANYLLPP |
| 2300 fluorescence intensity units | 3.41 | Ac-NLLLKHPD |

Target: T2, native human ESRRG protein
Experiment: peptide microarray screening for ESRRG binding (Iteration 1 and 2)
Details: Iteration 1 primary screen
From the text: The BLOSUM62 matrix was divided into Tiers based, with Tier 1 comprising “most conserved” (lowest penalty) and Tier 3 comprising “least conserved” (highest penalty) mutations observed in nature. Sequences for microarray production for the primary stage (Iteration 1) of screening for protein binding were created by permuting AA positions 4 and/or 5 only (i.e., core of sequence) of parent 8-mer peptides using Tier 1 and Tier 3 substitutions. This allows the systematic variation of the sequence in order to identify the most important motif within the larger candidate ligand sequence that is needed for binding the target protein. All peptides on the array were grown from the C→N terminal, with the exposed N-terminal amino acid masked by an acetyl group to prevent folding of the sequence and enable full presentation of the peptide to its target protein.
as §1
Highest binders (based on relative fluorescence signal) were selected and iteratively sequence expanded and arrayed (Iteration 2); and ESRRG binding sequences were selected as above. For iterative arrays, the core positions (AA 4 and 5) were kept unchanged while the outer amino acids (2, 3, 6, and/or 7) were permuted using Tier 3 substitutions.
Daughter candidate ligands and their new Tier 3 and/or Tier 1 based combinations were synthesized in situ on an addressable peptide microarray and screened against native human ESRRG protein in order to determine sequences that bind to this protein. Bound protein was detected by a fluorescently labeled anti-ESRRG mAb. Results are obtained in fluorescence intensity units which were used to rank the peptide ligands. Excess (100×) competing biological matrices (human serum, HSA/BSA or bacterial protein extract) were used as backgrounds to select for specific ligands to the protein. Other competing proteins can be added to background for specificity selection and directed evolution of ligands.
as §2, with “approach. Further affinity maturation of sequence was observed, with multifold enhancement in binding signal of Iteration 2 sequences (i.e., Granddaughters) compared to their respective parents from Iteration 1 (i.e., Daughters) on the same array.” for “approach.”

| Molecule | log2 (Sample B/Sample A) |
| --- | --- |
| Ac-AIRLHLMG-NH2 (C-terminus assumed) | 5.07 |
| Ac-ANNSRLLH-NH2 (C-terminus assumed) | 5.54 |
| Ac-AIRGALMG-NH2 (C-terminus assumed) | 5.48 |
| Ac-NSLRKHLL-NH2 (C-terminus assumed) | 5.36 |
| Ac-NIKVNANN-NH2 (C-terminus assumed) | 7.62 |

Second part, the molecule after the results:

| log2 (Sample B/Sample A) | Molecule |
| --- | --- |
| 7.65 | Ac-NSLLKHLL-NH2 (C-terminus assumed) |
| 4.99 | Ac-LLHKSKSQ-NH2 (C-terminus assumed) |

Same assay, conditions: Iteration 1 primary screen; fluorescence intensity units

| Molecule | Sample A (Bkgd) Signal | Sample B (Probe) Signal |
| --- | --- | --- |
| ANNIWLLH | 30.52 | 1,012.72 |
| ANNLWLLH | 41.92 | 1,606.54 |
| Ac-AIRLHLMG-NH2 (C-terminus assumed) | 28.09 | 942.75 |
| AANMLLLL | 25.96 | 1,191.86 |
| NSLLQHLL | 2.42 | 9,739.76 |
| KSLLQQLL | 88.50 | 7,385.40 |
| IKQNYNNS | 23.70 |  |
| ANNLQLLH | 47.08 | 1,537.71 |
| RKALVGKY | 28.08 |  |
| Ac-ANNSRLLH-NH2 (C-terminus assumed) | 31.74 | 1,480.35 |
| Ac-AIRGALMG-NH2 (C-terminus assumed) | 19.03 | 851.06 |
| ANNSSLLH | 7.39 | 1,153.13 |
| AANNYLLL | 31.22 | 3,436.10 |
| Ac-NSLRKHLL-NH2 (C-terminus assumed) | 20.79 | 856.14 |
| NIKVHANN | 9.00 |  |
| AANYVLLL | 14.74 | 2,199.01 |
| ANNSLLLH | 14.53 | 1,321.14 |
| Ac-NIKVNANN-NH2 (C-terminus assumed) | 3.04 | 598.87 |
| ANNSWLLH | 20.06 | 1,259.63 |

Other lines, results leading:

| Sample A (Bkgd) Signal | Sample B (Probe) Signal | Molecule |
| --- | --- | --- |
| 52.38 | 1,718.47 | ANNVKLLH |
| 23.63 |  | RKAIFGKY |
| 22.22 | 3,763.81 | AANYLLLL |
| 2.12 |  | ANNIQLLH |
| 21.54 | 1,220.01 | ANNLSLLH |
| 73.81 | 14,810.16 | Ac-NSLLKHLL-NH2 (C-terminus assumed) |
| 30.24 | 962.22 | Ac-LLHKSKSQ-NH2 (C-terminus assumed) |
| 13.78 | 2,012.02 | AANYILLL |
| 23.54 |  | NNSWSLHL |
| 23.60 | 1,009.30 | ANNSKLLH |
| 64.73 | 4,011.85 | AANMYLLL |
| 62.19 | 1,818.72 | ANNVSLLH |

Same assay, conditions: Iteration 2 iterative screen; fluorescence intensity units

| Molecule | Sample A (Bkgd) Signal | Sample B (Probe) Signal |
| --- | --- | --- |
| EDSYPRDG | 297.83 | 5,021.94 |
| HLKLKQEN | 183.65 | 1,745.92 |
| NNNFSLHM | 199.94 | 4,374.19 |
| RLLHYGSY | 290.67 | 1,203.13 |
| HFKLKQGG | 641.69 | 3,108.23 |
| FFKGHFKF | 543.19 | 5,435.29 |
| HRSYPRVY | 494.92 | 2,451.98 |
| WIKLKQND | 181.65 | 2,343.96 |
| FYNMYLLN | 251.75 | 1,558.62 |
| LFKLKQDG | 277.71 | 2,776.37 |
| PGKGHFPI | 260.71 |  |
| WNSYPRND | 292.56 | 2,198.94 |
| FFNFSLPA | 165.50 | 1,043.90 |

The next lines start with the values.

| Sample A (Bkgd) Signal | Sample B (Probe) Signal | Molecule |
| --- | --- | --- |
| 190.35 |  | HNNYLLNN |
| 156.87 | 2,242.02 | DNNYLLLL |
| 209.10 | 1,231.15 | WGKLKQGE |
| 238.04 | 1,007.54 | IFLLQQDN |
| 619.96 | 2,611.56 | WRSYPRRA |
| 182.90 | 2,860.10 | WANYLLPP |
| 230.42 | 1,455.83 | FWKGHFDF |
| 222.13 |  | WLLLKHGL |
